# Residue numbers refer to the chain shown, from its start.
# B1: VH1/VK1 (antibody, human IgG4 S228P, kappa, V domains shown)
# VH: EVKVVESGGGLVQPGGSMKLSCVVSGFTFSNYWVNWVRQAPGKGLEWVAQIRLKSDNYATHYEESVKGRFTISRDDSKSSVYLQMNNLRAEDSGIYYCTNWEDYWGQGTTVTVSS
# VL: DIVLTQSPDSLAVSLGERATISCRASQSVSTSRYSYIHWYQQKPGQPPKLLIKYASNLESGVPSRFSGSGSGTDFTLNIHPLEEEDFATYYCHHSWEIPLTFGQGTKLEIKR
# notes: humanized HJ8.5 variant, combination of VH1 and VK1
# B2: VH2/VK1 (antibody, human IgG4 S228P, kappa, V domains shown)
# VH: B1 VH with M18L, N87S, S93T
# VL: B1 VL
# notes: humanized HJ8.5 variant, combination of VH2 and VK1
# B3: VH3/VK1 (antibody, human IgG4 S228P, kappa, V domains shown)
# VH: B1 VH with K3Q, M18L, S79N, N87S, S93T, G94A
# VL: B1 VL
# notes: humanized HJ8.5 variant, combination of VH3 and VK1
# B4: VH3/VK4 (antibody, human IgG4 S228P, kappa)
# heavy chain: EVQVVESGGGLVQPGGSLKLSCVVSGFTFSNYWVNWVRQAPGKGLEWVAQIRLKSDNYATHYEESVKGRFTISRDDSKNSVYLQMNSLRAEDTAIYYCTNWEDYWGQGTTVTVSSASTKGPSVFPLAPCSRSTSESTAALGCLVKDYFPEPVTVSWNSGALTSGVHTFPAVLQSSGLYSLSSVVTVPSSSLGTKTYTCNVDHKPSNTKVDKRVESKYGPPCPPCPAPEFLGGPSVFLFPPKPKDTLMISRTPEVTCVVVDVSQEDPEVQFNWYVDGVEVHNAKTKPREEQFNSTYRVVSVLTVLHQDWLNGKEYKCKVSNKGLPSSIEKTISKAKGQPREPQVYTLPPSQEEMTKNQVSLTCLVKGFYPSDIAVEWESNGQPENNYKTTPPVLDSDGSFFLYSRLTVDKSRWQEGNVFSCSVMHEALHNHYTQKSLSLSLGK
# light chain: DIVMTQSPDSLAVSLGERATISCRASQSVSTSRYSYIHWYQQKPGQPPKLLIKYASNLESGVPSRFSGSGSGTDFTLTISSLQPEDFATYYCHHSWEIPLTFGQGTKLEIKRTVAAPSVFIFPPSDEQLKSGTASVVCLLNNFYPREAKVQWKVDNALQSGNSQESVTEQDSKDSTYSLSSTLTLSKADYEKHKVYACEVTHQGLSSPVTKSFNRGEC
# notes: humanized HJ8.5 variant, combination of VH3 and VK4
# B5: VH1/VK4 (antibody, human IgG4 S228P, kappa)
# heavy chain: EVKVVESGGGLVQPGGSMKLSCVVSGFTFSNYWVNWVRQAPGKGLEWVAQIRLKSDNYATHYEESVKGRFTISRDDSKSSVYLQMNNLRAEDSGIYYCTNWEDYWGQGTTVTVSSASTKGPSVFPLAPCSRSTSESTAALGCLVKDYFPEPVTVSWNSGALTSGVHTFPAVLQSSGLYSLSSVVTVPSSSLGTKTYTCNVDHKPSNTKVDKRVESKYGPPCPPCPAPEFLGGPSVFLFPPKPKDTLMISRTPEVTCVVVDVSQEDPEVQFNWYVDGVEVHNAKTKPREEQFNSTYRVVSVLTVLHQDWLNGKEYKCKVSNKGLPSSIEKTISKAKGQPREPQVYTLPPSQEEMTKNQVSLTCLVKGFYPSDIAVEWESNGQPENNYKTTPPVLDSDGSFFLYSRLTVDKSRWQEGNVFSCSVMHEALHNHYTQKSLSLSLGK
# light chain: B4 light chain
# notes: humanized HJ8.5 variant, combination of VH1 and VK4
# B6: VH2/VK4 (antibody, human IgG4 S228P, kappa)
# heavy chain: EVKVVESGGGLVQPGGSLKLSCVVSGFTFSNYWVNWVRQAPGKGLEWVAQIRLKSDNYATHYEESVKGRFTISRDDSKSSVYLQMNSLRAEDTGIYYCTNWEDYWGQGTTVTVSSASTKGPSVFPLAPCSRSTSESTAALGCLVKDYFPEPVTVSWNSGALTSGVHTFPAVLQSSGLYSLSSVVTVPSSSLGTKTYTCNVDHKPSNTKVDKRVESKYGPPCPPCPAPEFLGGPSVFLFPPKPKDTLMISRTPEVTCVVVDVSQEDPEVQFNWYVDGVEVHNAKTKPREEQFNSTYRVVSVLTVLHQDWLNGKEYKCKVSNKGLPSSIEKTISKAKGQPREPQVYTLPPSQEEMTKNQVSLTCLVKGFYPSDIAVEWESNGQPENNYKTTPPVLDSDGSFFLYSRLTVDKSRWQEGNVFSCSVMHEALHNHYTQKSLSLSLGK
# light chain: B4 light chain
# notes: humanized HJ8.5 variant, combination of VH2 and VK4
# B7: VH4/VK3 (antibody, human IgG4 S228P, kappa, V domains shown)
# VH: B1 VH with K3Q, V4L, M18L, S79N, V81L, N87S, S93T, G94A
# VL: B1 VL with N78T, H80S, P81S, E83Q, E84P
# notes: humanized HJ8.5 variant, combination of VH4 and VK3
# Target: T1, human tau (human, UniProt P10636 2-60)
# T1 construct: also called soluble human tau; human tau protein
# T1 sequence (P10636 2-60 limits assumed): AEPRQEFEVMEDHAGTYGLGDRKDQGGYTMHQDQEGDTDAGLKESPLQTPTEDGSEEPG
# Assay: competition ELISA on plate-coated human tau against biotinylated HJ8.5; IC50 normalised to chimeric HJ8.5; column External
row,Binder,IC50 (Relative to Chimera)
1,B1,0.84 relative to Chimera
2,B2,1.02 relative to Chimera
3,B3,1.04 relative to Chimera
4,B4,1.51 relative to Chimera
5,B5,1.41 relative to Chimera
6,B6,1.37 relative to Chimera
7,B7,1.31 relative to Chimera

# Target: T1, human tau
# Assay: competition ELISA on plate-coated human tau against biotinylated HJ8.5; IC50 normalised to chimeric HJ8.5; column C2N Run 1
row,Binder,IC50 (Relative to Chimera)
1,B1,1.49 relative to Chimera
2,B2,1.43 relative to Chimera
3,B3,1.16 relative to Chimera
4,B4,0.89 relative to Chimera
5,B5,2.05 relative to Chimera
6,B6,1.36 relative to Chimera
7,B7,1.79 relative to Chimera

# Target: T1, human tau
# Assay: competition ELISA on plate-coated human tau against biotinylated HJ8.5; IC50 normalised to chimeric HJ8.5; column C2N Run 2
row,Binder,IC50 (Relative to Chimera)
1,B1,1.11 relative to Chimera
2,B2,1.02 relative to Chimera
3,B3,1.42 relative to Chimera
4,B4,1.22 relative to Chimera
5,B5,1.02 relative to Chimera
6,B6,1.03 relative to Chimera
7,B7,1.9 relative to Chimera
